Assay results: article PMC11809415 (2025)

B1: F-tractinopt–mCherry fusion [rat] / F-actin (rabbit skeletal muscle α-actin filaments) [rabbit] (parent complex)
chain 1: APRRSVGELRLLFEARAASAA
chain 2: not shown

Variants of: B1
Test: high-speed cosedimentation assay (SDS-PAGE densitometry); 2 µM F-tractin-mCherry; high-speed sedimentation, 120,000 g; point at the highest actin level (40 µM total, about 40 µM free F-actin); read off a plot

response	Variant
~0.06 fraction of F-tractin bound	chain 1 F13A

Variants of: B1
Test: high-speed cosedimentation assay (SDS-PAGE densitometry); 2 µM F-tractin-mCherry; high-speed sedimentation, 120,000 g; actin 0-40 µM

Kd [µM]	Variant
23	chain 1 R3A

Variants of: B1
Test: high-speed cosedimentation assay (SDS-PAGE densitometry); 2 µM F-tractin-mCherry; high-speed sedimentation, 120,000 g; point at the highest actin level (40 µM total, about 39 µM free F-actin); read off a plot

response	Variant
~0.44 fraction of F-tractin bound	chain 1 R3A
